Assay in all cases: two-hybrid library CCNG1;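 also: natural log of median RNA to DNA barcode read ratio; higher means stronger binding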
One assay concerns the target T1, 4H949-bA.
T1 chain: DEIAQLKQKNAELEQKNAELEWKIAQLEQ

A further assay deals with T2, 4H2585-bA.
T2 chain: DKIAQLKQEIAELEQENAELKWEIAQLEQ

The next assay concerns the target T3, 4H2518-bA.
T3 chain: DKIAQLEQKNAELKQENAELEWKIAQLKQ

The target of another assay is T4, 4H3364-bA.
T4 chain: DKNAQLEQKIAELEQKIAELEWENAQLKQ

Another assay concerns the target T5, 4H3381-bA.
T5 chain: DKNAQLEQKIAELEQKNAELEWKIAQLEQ

A further assay addresses T6, 4H796-bA.
T6 chain: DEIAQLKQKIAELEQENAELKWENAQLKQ

For a further assay, the target named is T7, 4H264-bA.
T7 chain: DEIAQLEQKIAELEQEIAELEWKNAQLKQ

The next assay concerns the target T8, 4H3041-bA.
T8 chain: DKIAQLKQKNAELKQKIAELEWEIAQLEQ

The next assay deals with T9, 4H2760-bA.
T9 chain: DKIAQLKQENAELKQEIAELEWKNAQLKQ

The next assay concerns the target T10, O8-bN.
T10 chain: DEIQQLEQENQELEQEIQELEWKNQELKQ

For the next assay, the target named is T11, P4A.
T11 chain: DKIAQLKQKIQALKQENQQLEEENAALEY

Another assay has as its target T12, 4H3297-bA.
T12 chain: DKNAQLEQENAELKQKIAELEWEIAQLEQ

A further assay has as its target T13, 4H2859-bA.
T13 chain: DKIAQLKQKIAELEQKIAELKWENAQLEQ

For a further assay, the target named is T14, 4H349-bA.
T14 chain: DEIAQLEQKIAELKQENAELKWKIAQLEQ

A further assay addresses T15, 4H2931-bA.
T15 chain: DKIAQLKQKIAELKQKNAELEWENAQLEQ

Another assay has as its target T16, 4H56-bA.
T16 chain: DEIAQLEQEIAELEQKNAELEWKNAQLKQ

The target of a further assay is T17, 4H730-bA.
T17 chain: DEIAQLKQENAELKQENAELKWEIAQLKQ

For another assay, the target named is T18, 4H932-bA.
T18 chain: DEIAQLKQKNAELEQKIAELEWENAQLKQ

The target in another assay is T19, 4H319-bN.
T19 chain: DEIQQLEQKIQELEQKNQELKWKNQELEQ

For another assay, the target named is T20, 4H2717-bN.
T20 chain: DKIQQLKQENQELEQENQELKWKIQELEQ

Another assay concerns the target T21, 4H741-bN.
T21 chain: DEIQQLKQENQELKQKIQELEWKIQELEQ

The target in another assay is T22, O4-bS.
T22 chain: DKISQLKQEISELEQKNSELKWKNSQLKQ

The target in a further assay is T23, 4H348-bN.
T23 chain: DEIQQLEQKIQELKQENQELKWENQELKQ

A further assay has as its target T24, 4H477-bN.
T24 chain: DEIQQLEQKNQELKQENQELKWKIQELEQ

The next assay concerns the target T25, 4H2915-bN.
T25 chain: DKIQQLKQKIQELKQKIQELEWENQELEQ

In a further assay the target is T26, 4H3057-bN.
T26 chain: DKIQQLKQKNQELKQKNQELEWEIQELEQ

Another assay deals with T27, 4H2588-bN.
T27 chain: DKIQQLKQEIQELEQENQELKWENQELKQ

A further assay deals with T28, 4H2839-bN.
T28 chain: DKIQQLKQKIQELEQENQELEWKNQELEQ

The target in a further assay is T29, 4H2503-bN.
T29 chain: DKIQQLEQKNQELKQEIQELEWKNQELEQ

A further assay concerns the target T30, 4H40-bN.
T30 chain: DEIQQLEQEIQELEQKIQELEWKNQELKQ

Another assay deals with T31, 4H2692-bN.
T31 chain: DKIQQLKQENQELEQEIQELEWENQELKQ

In the next assay the target is T32, 4H3277-bN.
T32 chain: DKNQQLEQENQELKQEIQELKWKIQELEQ

For a further assay, the target named is T33, 4H492-bN.
T33 chain: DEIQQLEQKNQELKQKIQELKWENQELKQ

For another assay, the target named is T34, 4H48-bN.
T34 chain: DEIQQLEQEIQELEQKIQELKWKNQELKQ

The next assay addresses T35, 4H491-bN.
T35 chain: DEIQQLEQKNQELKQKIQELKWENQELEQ

A further assay deals with T36, 4H492-bA.
T36 chain: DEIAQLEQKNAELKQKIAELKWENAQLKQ

In another assay the target is T37, 4H2444-bA.
T37 chain: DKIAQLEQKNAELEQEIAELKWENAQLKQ

Another assay concerns the target T38, 4H2627-bA.
T38 chain: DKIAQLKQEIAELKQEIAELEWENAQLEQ

The target of another assay is T39, 4H918-bA.
T39 chain: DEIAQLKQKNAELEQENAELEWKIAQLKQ

The target in a further assay is T40, 4H2673-bA.
T40 chain: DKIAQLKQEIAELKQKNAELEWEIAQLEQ

The target of a further assay is T41, 4H3112-bA.
T41 chain: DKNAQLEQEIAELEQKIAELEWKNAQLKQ

For the next assay, the target named is T42, 4H4073-bA.
T42 chain: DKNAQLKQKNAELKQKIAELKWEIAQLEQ

Another assay addresses T43, 4H457-bA.
T43 chain: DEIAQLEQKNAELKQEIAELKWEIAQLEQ

A further assay deals with T44, 4H3427-bA.
T44 chain: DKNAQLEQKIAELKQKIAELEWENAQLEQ

The target in another assay is T45, 4H797-bA.
T45 chain: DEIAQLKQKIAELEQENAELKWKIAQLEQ

Another assay addresses T46, 4H2586-bA.
T46 chain: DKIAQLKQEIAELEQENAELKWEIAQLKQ

The target of another assay is T47, 4H3926-bA.
T47 chain: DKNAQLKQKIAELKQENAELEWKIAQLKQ

Another assay has as its target T48, 4H754-bA.
T48 chain: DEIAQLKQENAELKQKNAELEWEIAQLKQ

For a further assay, the target named is T49, 4H683-bA.
T49 chain: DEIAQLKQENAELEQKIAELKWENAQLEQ

The target of another assay is T50, 4H780-bA.
T50 chain: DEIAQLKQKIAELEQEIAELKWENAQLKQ

Another assay concerns the target T51, 4H346-bA.
T51 chain: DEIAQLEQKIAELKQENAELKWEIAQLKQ

A further assay deals with T52, O2-bN.
T52 chain: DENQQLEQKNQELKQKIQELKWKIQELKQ

The target of a further assay is T53, 4H968-bA.
T53 chain: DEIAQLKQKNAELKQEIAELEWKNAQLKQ

A further assay concerns the target T54, 4H953-bA.
T54 chain: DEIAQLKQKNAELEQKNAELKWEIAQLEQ

A further assay has as its target T55, 4H855-bA.
T55 chain: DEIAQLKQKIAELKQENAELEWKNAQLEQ

In another assay the target is T56, 4H3010-bA.
T56 chain: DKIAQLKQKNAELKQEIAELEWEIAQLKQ

For another assay, the target named is T57, 4H575-bA.
T57 chain: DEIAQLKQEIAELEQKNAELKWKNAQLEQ

The target in a further assay is T58, 4H2702-bA.
T58 chain: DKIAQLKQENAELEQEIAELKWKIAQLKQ

Results on five molecules are retold here after paper PMC10397247.

With DKIAQLEQKNAELKQENAELEWKIAQLKQ [4H2518-bA], the interaction score with 4H949-bA was -0.976; with 4H2585-bA, -0.589; in the assay with 4H2518-bA, 0.343; in the assay with 4H3364-bA, -0.361; with 4H3381-bA it was -0.773; in the assay with 4H796-bA it was -1.33. Besides, the interaction score with 4H264-bA is -1; with 4H3041-bA, 0.486; in the assay with 4H2760-bA it was -0.635; with O8-bN it was -2.05; in the assay with P4A it was -1.32; with 4H3297-bA, -0.628. Moreover, the interaction score with 4H2859-bA was -0.00645; with 4H349-bA it was -0.372; with 4H2931-bA, -0.288; with 4H56-bA, -1.52; with 4H730-bA it was -0.626; with 4H932-bA it was -1.08.
For DKIQQLEQKNQELKQEIQELEWKNQELEQ [4H2503-bN], the interaction score with 4H319-bN is -0.708; with 4H2717-bN it was -1.42; in the assay with 4H741-bN, -0.327; with O4-bS, -1.2; in the assay with 4H348-bN it was 0.419; in the assay with 4H477-bN, -0.639. Besides, the interaction score with 4H2915-bN is -0.299; in the assay with 4H3057-bN, -0.657; with 4H2588-bN it was 0.453; in the assay with 4H2839-bN, -0.436; in the assay with 4H2503-bN it was -0.645; with 4H40-bN it was -0.263. In addition, the interaction score in the assay with 4H2692-bN was -2.06; with 4H3277-bN, 0.0524; with 4H492-bN it was 0.186.
DEIQQLEQEIQELEQKIQELKWKNQELKQ [4H48-bN]: the interaction score in the assay with 4H48-bN is 1.04; with 4H491-bN it was -0.799.
Regarding DKIAQLEQKNAELEQEIAELKWENAQLKQ [4H2444-bA], the interaction score was -0.993 with 4H949-bA; 0.675 with 4H2585-bA; 1.66 with 4H492-bA; -0.678 with 4H2518-bA; 1.3 in the assay with 4H2444-bA; -0.57 with 4H3364-bA. Also, the interaction score in the assay with 4H3381-bA was -0.537; with 4H796-bA it was -0.412; with 4H264-bA it was 0.179; with 4H3041-bA, 0.922; in the assay with 4H2760-bA, 1.15; with 4H3297-bA it was 0.252. Besides, the interaction score with 4H2859-bA is -0.0526; with 4H349-bA, -0.457; in the assay with 4H2931-bA, 0.114; with 4H56-bA, -1.91; with 4H730-bA it was -0.297; in the assay with 4H932-bA, -1.36.
Regarding DKIAQLKQEIAELEQENAELKWEIAQLKQ [4H2586-bA], the interaction score with 4H2627-bA is 0.292; with 4H918-bA, -0.499; with 4H2673-bA it was 0.53; with 4H3112-bA it was -1; with 4H4073-bA, 0.255; with 4H457-bA, 0.765. Further, the interaction score with 4H3427-bA is -0.911; with 4H797-bA, 0.763; in the assay with 4H2586-bA, 1.48; in the assay with 4H3926-bA it was 1.9; with 4H754-bA it was -1.06; in the assay with 4H683-bA, 0.537. Moreover, the interaction score in the assay with 4H780-bA is -1.17; with 4H346-bA, 0.976; in the assay with O2-bN, -0.327; in the assay with 4H968-bA, -1.91; with 4H953-bA, 1.17; with 4H855-bA it was 1.54. The interaction score with 4H3010-bA is 1.28; with 4H575-bA it was -0.515; with 4H2702-bA, 0.531.
